According to patent US20040091578A1 (priority 2001, published 2004):

Experiments:
castor seed 2S protein = castor seed 2S protein (Ricinus communis, UniProt P01089); assay type: biochemical; conditions: 20 min at 25° C.
atopic dogs = assay: Skin tests with milk and BLG in atopic dogs (Example 39); assay type: in vivo; conditions: dog model skin tests
Experimental: Newborn pups from two litters of the atopic dog colony, designated CGB and GCB, were injected subcutaneously at day 1 with 1 μg each of wheat, cows milk and beef extract (Miles, Inc., Elkhart, Ind., described in Example 33) in 0.2 ml of alum. A third litter, designated CBB, was injected with a soy extract (Miles, Inc. described in Example 33) in addition to these same allergens. Procedures for the sensitization, testing and maintenance of the pups were substantially the same as those described in Example 36.
About 3 min prior to skin testing, each dog received 4-5 ml of filtered 0.5% Evans blue dye solution (equivalent to 0.2 ml of 0.5% Evans blue dye per kg of weight) through a cephalic vein to enhance assessment of the cutaneous IgE antibodies. Serial dilutions of 100 μl of each sample were injected intradermally on the abdominal skin to establish the titer. After 15-20 min, the allergic response was determined by measuring the size of the blue wheal reaction (maximum length and width). An appropriate negative control (buffer diluted in physiological saline) was included for each animal tested. Repeated tests with thioredoxin, NTR, NADPH and pepsin alone were consistently negative.

pepsin [1] = target: T1, pepsin (Sus scrofa, UniProt P00791); assay: Pepsin assay in simulated gastric fluid (Example 39); assay type: in vitro ADME, porcine
T1 construct: purchased Sigma
Experimental: BLG, 640 μg, or milk, 1 mg protein (i.e., about 30 μl), was incubated with or without the thioredoxin system (NTS) at either 4° C. […] The BLG, 320 μg, or milk, 500 μg protein, was then treated in 200 μl of simulated gastric fluid (SGF) as described by Astwood, J. D. et al. (1996), “Stability of food allergens to digestion in vitro”, Nature Biotechnol. 14:1269-1273. SGF consists of 0.32% pepsin (w/v) and 30 mM NaCl adjusted at pH 1.2 with HCl (Board of Trustees (ed.) 1995, Simulated Gastric Fluid, TS., pp. 2053 in the United States Pharmacopeia 23, The National Formulary 18. United States Pharmacopeial Convention, Inc. Rockville, Md.). The reaction mixture was incubated at 37° C. and stopped by adding 0.375-fold volume of 160 mM Na2CO3 (ca. pH 7) after 0, 0.25, 1, 2, 4, 8, 15, 30 and 60 min incubation. The protein mixture was then subjected to SDS-PAGE (15% gels) and stained for protein with Coomassie blue as described below. As indicated, the allergenicity of the digested samples was determined by skin test analysis.

trypsin [2] = assay: Trypsin proteolysis of purified milk allergens; assay type: biochemical; conditions: 10 μg NTS reduced protein, 2 μg trypsin
Experimental: The analysis of the reduction was done using the mBBr/SDS-PAGE techniques. Further in this study, when 10 μg of an NTS reduced purified milk allergen protein, β-lactoglobulin (Sigma Chemical Co.), was treated with 2 μg of trypsin, proteolysis was 100% as compared with only 50% for the identically trypsin treated oxidized β-lactoglobulin. […] However, 10 μg of purified α-lactalbumin reduced by the NTS was proteolyzed 80% by trypsin. Also 10 μg of α-lactalbumin reduced by 0.8 μg of thioredoxin and 0.5 mM DTT was 100% proteolyzed by 2 μg of trypsin.

[3] = Redox stability of reduced BLG in air; assay type: physicochemical; conditions: NTS-treated raw milk without buffer, stored at 4° C. in air
Experimental: BLG is known to contain two disulfides, both intramolecular (See, FIG. 8): one clearly accessible on the surface and located close to the C-terminus (Cys 66-Cys 160) and the other, close to the core, located between two β-sheets (Cys 106-Cys 119 or possibly Cys 106-Cys 121). Sequence analysis confirmed that the exposed disulfide (Cys 66-Cys 160) was reduced at 55° C. […] Differential reduction of BLG could also be achieved by altering pH. […] Furthermore, the BLG in this treated milk without buffer remained reduced for 2 days when stored at 4° C. in air (data not shown).
Two sulfhydryl (SH) groups can often spontaneously react to form an S—S bond in the presence of oxygen. […] For example, the reduced form of β-lactoglobulin (BLG), a major allergen of cow's milk, is fully reoxidized after 3 days in air whether reduced by either NTS or DTT. This invention provides for the stabilization of proteins, including allergenic proteins reduced by the NTS at 4° C. and by DTT at 55° C. Other physiological reductants such as lipoic acid may also be used to initially reduce the proteins. In general, the reduction reactions were conducted as described in previous examples. The proteins are stabilized in that the SH groups of these proteins and allergens are blocked and prevented from reoxidizing to form S—S bonds. […]

pepsin [4] = target: T1, pepsin; assay: Stability to pepsin in simulated gastric fluid (Example 44); assay type: in vitro ADME, porcine; conditions: 37° C., 0.32% pepsin
Experimental: Assay for Stability to Pepsin. BLG (1 mg/ml) or milk (15 mg/ml) were mixed with simulated gastric fluid (SGF) to give 0.32% pepsin and incubated for the indicated times at 37° C. as described in Example 39 and Astwood et al., 1996, herein incorporated by reference. The digested proteins were analyzed by reducing SDS-PACE (10 to 20% gradient gel) also as described in Laemmli, 1970, herein incorporated by reference.

trypsin [5] = conditions: soy flour, 30 min at 120° C. (Friedman et al., 1991); cited from earlier work
trypsin [6] = assay: Trypsin inhibition assay; assay type: biochemical
Experimental: Unless indicated, the reduction of the trypsin inhibitors (0.4 mg/ml) was carried out in 0.1 ml of 20 mM sodium phosphate buffer, pH 7.9 containing 10 mM EDTA at 30° C. for 2 hours. The concentrations of thioredoxin, NTR, and NADPH were 0.024 mg/ml, 0.02 mg/ml, and 0.25 mM, respectively. […] Following reduction, aliquots of the inhibitor mixture were withdrawn either for determination of trypsin inhibitory activity or proteolytic susceptibility. In the subtilisin tests, the inhibitor mixture (50 μl) was directly mixed with subtilisin and incubated at room temperature for 1 hour. […] Proteolytic products were analyzed by electrophoresis with 12% or 16% SDS polyacrylamide slab gels (Laemmli, 1970). […]
Thioredoxin and NTR were assayed as previously described by Florencio et al. (1988). Trypsin activity was measured in 50 mM Tris-HCl, pH 7.9, by following the increase in absorbance at 253 nm with N-benzoyl-L-arginine ethyl ester as substrate (Mundy et al., 1984) or by the release of azo dye into the trichloroacetic acid (TCA)-soluble fraction from azocasein substrate (see below). For trypsin inhibition assays, trypsin (5 to 10 μg) was preincubated with appropriate amounts of KTI or BBTI for 5 minutes at room temperature in 50 mM Tris-HCl, pH 7.9 and proteolytic activity was then determined. […]

glutaredoxin = target: T2, glutaredoxin (Escherichia coli, UniProt P68688); assay: Reduction by glutaredoxin, mBBr/SDS-PAGE with densitometric scanning; assay type: biochemical; conditions: E. coli glutaredoxin, glutathione reductase, NADPH
T2 sequence (P68688 1-85): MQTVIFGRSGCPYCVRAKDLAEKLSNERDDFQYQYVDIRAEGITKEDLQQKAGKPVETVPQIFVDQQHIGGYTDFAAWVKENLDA
Experimental: Direct reduction of the proteins under study was determined by a modification of the method of Crawford et al. (Crawford, N. A. et al. (1989), Arch. Biochem. Biophys. 271:223-239). The reaction was carried out in 100 mM potassium phosphate buffer, pH 7.1, containing 10 mM EDTA and 16% glycerol in a final volume of 0.1 ml. As indicated, 0.7 μg (0.1 μM) NTR and 1 μg (0.8 μM) thioredoxin (both routinely from E. coli were added to 70 μl of the buffer solution containing 1 mM NADPH and 10 μg (2 to 17 μM) of target protein. When thioredoxin was reduced by dithiothreitol (DTT, 0.5 mM), NADPH and NTR were omitted. Assays with reduced glutathione were performed similarly, but at a final concentration of 1 mM. After incubation for 20 min, 100 nmoles of mBBr were added and the reaction was continued for another 15 min. To stop the reaction and derivatize excess mBBr, 10 μl of 10% SDS and 10 μl of 100 mM β-mercaptoethanol were added and the samples were then applied to the gels. […]
This ability was tested, using glutaredoxin from E. coli and the seed proteins currently under study. Reduction activity was monitored by the mBBr/SDS polyacrylamide gel electrophoresis procedure coupled with densitometric scanning.

[7] = test system: wheat protease preparation; assay: Susceptibility to proteolysis by a plant protease preparation, SDS-PAGE densitometry; assay type: biochemical
Experimental: The endosperm (10-15 g fresh weight) isolated from 5-day germinated wheat seeds by excising the roots and shoots was extracted for 30 minutes at 4° C. with 5 volumes of 200 mM sodium acetate, pH 4.6, containing 10 mM β-mercaptoenthanol. The homogenate was centrifuged for 20 minutes at 48,000 g, 4° C. The pellet was discarded and the supernatant fluid was fractionated with 30-70% ammonium sulfate. This fraction, which represented the protease preparation, was resuspended in a minimum volume of 20 mM sodium acetate, pH 4.6, containing 10 mM β-mercaptoenthanol, and dialyzed against this buffer overnight at 4° C.
Unless indicated, the reduction of the trypsin inhibitors (0.4 mg/ml) was carried out in 0.1 ml of 20 mM sodium phosphate buffer, pH 7.9 containing 10 mM EDTA at 30° C. for 2 hours. The concentrations of thioredoxin, NTR, and NADPH were 0.024 mg/ml, 0.02 mg/ml, and 0.25 mM, respectively. […] Following reduction, aliquots of the inhibitor mixture were withdrawn either for determination of trypsin inhibitory activity or proteolytic susceptibility. In the subtilisin tests, the inhibitor mixture (50 μl) was directly mixed with subtilisin and incubated at room temperature for 1 hour. With the wheat protease preparation, the pH of the inhibitor mixture (50 μl) was first adjusted to 4.7 by mixing with 35 μl of 200 mM sodium acetate, pH 4.6; 10 μl of the wheat protease preparation was then added and incubation was continued for 2 hours at 37° C. To stop digestion with subtilisin, 2 μl of 100 mM phenylmethylsulfonyl fluoride (PMSF) and 10 μl of 10% SDS were added to the digestion mixture. With the plant protease preparation, digestion was stopped by adding an equal volume of SDS sample buffer [0.125 M Tris-HCl, pH 6.8, 4% (w/v) SDS, 20% (v/v) glycerol, 10% (v/v) β-mercaptoethanol, and 0.02% (w/v) bromophenol blue]. Proteolytic products were analyzed by electrophoresis with 12% or 16% SDS polyacrylamide slab gels (Laemmli, 1970). The dried slab gels were scanned with a laser densitometer (Pharmacia-LKB UltraScan XL) and the peak area of the KTI or BBTI protein band was obtained by integration with a Pharmacia GelScan XL software program.
To test whether the reduced forms of KTI and BBTI show decreased stability to proteases other than trypsin, both the reduced and oxidized forms of KTI and BBTI were incubated with a wheat protease preparation or with subtilisin and the proteolytic products were analyzed by SDS-PAGE. The extent of proteolysis was determined by measuring the abundance of intact protein on SDS gels by laser densitometer. When tested with a protease preparation from 5-day germinated wheat seeds, the oxidized form of the Kunitz inhibitor was almost completely resistant to digestion whereas the thioredoxin-reduced form was susceptible to protease. […] The nature of the proteolytic reaction was not investigated, but it is noted that peptide products were not detected on SDS gels.

T1 sequence (P00791 60-385): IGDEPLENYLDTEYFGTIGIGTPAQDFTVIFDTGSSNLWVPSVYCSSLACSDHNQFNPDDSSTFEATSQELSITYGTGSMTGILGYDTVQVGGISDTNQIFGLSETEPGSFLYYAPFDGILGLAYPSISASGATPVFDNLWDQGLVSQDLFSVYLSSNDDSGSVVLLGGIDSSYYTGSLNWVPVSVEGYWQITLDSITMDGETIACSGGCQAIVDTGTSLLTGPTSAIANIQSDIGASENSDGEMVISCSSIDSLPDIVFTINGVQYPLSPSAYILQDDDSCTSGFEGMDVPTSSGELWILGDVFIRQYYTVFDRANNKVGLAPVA
Sequence of castor seed 2S protein (P01089 194-258 limits assumed): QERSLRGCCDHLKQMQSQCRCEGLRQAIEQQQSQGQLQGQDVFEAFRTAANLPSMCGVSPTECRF
Sequence of castor seed 2S protein (P01089 157-190 partner limits assumed): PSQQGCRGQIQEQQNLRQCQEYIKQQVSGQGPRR

O[C@H](CS)[C@H](O)CS (racemic) [DTT, dithiothreitol]
Relative Reduction (%) (castor seed 2S protein): 67%

β-lactoglobulin: bovine β-lactoglobulin, major milk allergen; untreated (oxidized) control in Tables XVIII, XXI-XXIV
share of the total wheal-inducing activity of milk (atopic dogs): 80% | time resisting digestion in SGF (pepsin [1]; oxidized BLG in milk): at least 60 min | time to digestion in SGF (pepsin [1]; thioredoxin-reduced BLG in milk): ≤ 60 s | proteolysis by trypsin (trypsin [2]): 100% | time BLG remained reduced [3]: 2 days | half-life in SGF (pepsin [4]): about 2 hours

B1: Soybean Kunitz: Kunitz soybean trypsin inhibitor (protein, UniProt P01070 25-205, looked up)
Trypsin inhibitor A: DFVLDNEGNPLENGGTYYILSDITAFGGIRAAPTGNERCPLTVVQSRNELDKGIGTIISSPYRIRFIAEGHPLSLKFDSFAVIMLCVGIPTEWSVVEDLPEGPAVKIGENKDAMDGWFRLERVSDDEFNNYKLVFCPQQAEDDKCGDIGISIDHDDGTRRLVVSKNKPLVVQFQKLDKESL
original trypsin inhibitor activity remaining (trypsin [5]): about 20% | increase in trypsin activity effected by the NADP/thioredoxin system (trypsin [6]): 3 fold | percentage reduction by glutaredoxin relative to E. coli thioredoxin (glutaredoxin): ineffective | Relative Abundance ([7]; Protease after E. coli NTS): 22.1 | Relative Abundance ([7]; Protease after NTS minus NADPH): 97.7 | Relative Abundance ([7]; Protease after NTS minus NTR): 97.9 | Relative Abundance ([7]; Protease after NTS minus thioredoxin): 90.2 | Relative Abundance ([7]; Protease, No reduction system, no protease = 100): 97.9 | degraded ([7]; all components of NTS present): about 80%
